Test results taken from the supplement of paper PMC10567573.

B1: SPACA3 (parent)
chain: FTSGFNAAALDYEADGSTNNGIFQ

Variants of: B1
Assay: protein stability index of a GFP-peptide fusion (GPS, HEK-293T) (PSI 1-6); higher = more stable
Conditions: c terminus: a fixed tail appended
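Further: lentivirally expressed fusions sorted by FACS into six bins by GFP to DsRed ratio, PSI derived from sequencing read proportions per bin multiplied by bin number.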

| Variant | protein stability index |
| --- | --- |
| FTSGFNAAALDYQADGSTNNGIFQ [E13Q] | 1.56 |
| FTSGFNAAALDYYADGSTNNGIFQ [E13Y] | 1.61 |
| FTSGFNAAALDYKADGSTNNGIFQ [E13K] | 2.08 |
| FTSGFNAAALDYCADGSTNNGIFQ [E13C] | 1.87 |
| FTSGFNAAALSYEADGSTNNGIFQ [D11S] | 1.5 |
| FTSGFNAAALRYEADGSTNNGIFQ [D11R] | 2.2 |
| FTSGFNAAALLYEADGSTNNGIFQ [D11L] | 1.93 |
| FTSGFNAAALAYEADGSTNNGIFQ [D11A] | 2.16 |
| FTSGFNAAALWYEADGSTNNGIFQ [D11W] | 1.4 |
| FTSGFNAAALFYEADGSTNNGIFQ [D11F] | 3.1 |
| FTSGFNAAALKYEADGSTNNGIFQ [D11K] | 2.43 |
| FTRGFNAAALDYEADGSTNNGIFQ [S3R] | 2.46 |
| FTFGFNAAALDYEADGSTNNGIFQ [S3F] | 2.12 |
| FTYGFNAAALDYEADGSTNNGIFQ [S3Y] | 2.03 |
| FTKGFNAAALDYEADGSTNNGIFQ [S3K] | 2.97 |
| FTDGFNAAALDYEADGSTNNGIFQ [S3D] | 2.55 |
| FTVGFNAAALDYEADGSTNNGIFQ [S3V] | 2.07 |
| FTCGFNAAALDYEADGSTNNGIFQ [S3C] | 1.65 |
| FTEGFNAAALDYEADGSTNNGIFQ [S3E] | 2 |
| FTSGFNAAALDYEADGSCNNGIFQ [T18C] | 2 |
| FTSGFNAAALDYEADGSSNNGIFQ [T18S] | 2.08 |
| FTSGFNAAALDYEADGSKNNGIFQ [T18K] | 2.78 |
| FTSGFNAAALDYEADGSRNNGIFQ [T18R] | 2.02 |
| FTSGFNAAALDYEADGSYNNGIFQ [T18Y] | 2.02 |

| Variant | protein stability index |
| --- | --- |
| FTSGFNAAALDYEADGSINNGIFQ [T18I] | 2.14 |
| FTSGFNAAALDYEADGSMNNGIFQ [T18M] | 1.95 |
| FTSGFNAAALDYEADGSWNNGIFQ [T18W] | 1.59 |
| FTSGFNAAALDYEADGSGNNGIFQ [T18G] | 2.31 |
| FTSGFNAAALDYEADGSDNNGIFQ [T18D] | 2.06 |
| FTSGFNAAALDYEADGSENNGIFQ [T18E] | 2.27 |
| FTSGFNAAALDYEADGSTNNGIHQ [F23H] | 2.42 |
| FTSGFNAAALDYEADGSTNNGIQQ [F23Q] | 2.36 |
| FTSGFNAAALDYEADGSTNNGISQ [F23S] | 2.2 |
| FTSGFNAAALDYEADGSTNNGIKQ [F23K] | 2.48 |
| FTSGFNAAALDYEADGSTNNGILQ [F23L] | 2.08 |
| FTSGFNAAALDYEADGSTNNGIPQ [F23P] | 2.42 |
| FTSGFNAAALDYEADGSTNNGIDQ [F23D] | 2.5 |
| FTSGFNAAALDYEADGSTNNGINQ [F23N] | 2.4 |
| FTSGFNAAALDYEADGSTNNGIWQ [F23W] | 1.64 |
| FTSGFNAAALDYEADGSTNNPIFQ [G21P] | 2.12 |
| FTSGFNAAALDYEADGSTNNIIFQ [G21I] | 1.51 |
| FTSGFNAAALDYEADGSTNNNIFQ [G21N] | 1.84 |
| FTSGFNAAALDYEADGSTNNLIFQ [G21L] | 2.06 |
| FTSGFNAAALDYEADGSTNNQIFQ [G21Q] | 1.7 |
| FTSGFNAAALDYEADGSTNNAIFQ [G21A] | 1.91 |
| FTSIFNAAALDYEADGSTNNGIFQ [G4I] | 2.15 |
| FTSSFNAAALDYEADGSTNNGIFQ [G4S] | 2.38 |
| FTSTFNAAALDYEADGSTNNGIFQ [G4T] | 2.42 |

| Variant | protein stability index |
| --- | --- |
| FTSEFNAAALDYEADGSTNNGIFQ [G4E] | 2.22 |
| FTSKFNAAALDYEADGSTNNGIFQ [G4K] | 1.98 |
| FTSWFNAAALDYEADGSTNNGIFQ [G4W] | 2.98 |
| FTSVFNAAALDYEADGSTNNGIFQ [G4V] | 2.21 |
| FTSQFNAAALDYEADGSTNNGIFQ [G4Q] | 2.43 |
| ATSGFNAAALDYEADGSTNNGIFQ [F1A] | 4.21 |
| HTSGFNAAALDYEADGSTNNGIFQ [F1H] | 4.48 |
| NTSGFNAAALDYEADGSTNNGIFQ [F1N] | 4.94 |
| VTSGFNAAALDYEADGSTNNGIFQ [F1V] | 4.46 |
| ETSGFNAAALDYEADGSTNNGIFQ [F1E] | 5.11 |
| PTSGFNAAALDYEADGSTNNGIFQ [F1P] | 4.29 |
| GTSGFNAAALDYEADGSTNNGIFQ [F1G] | 4.61 |
| KTSGFNAAALDYEADGSTNNGIFQ [F1K] | 4.54 |
| ITSGFNAAALDYEADGSTNNGIFQ [F1I] | 3.95 |
| FTSGFNAAALDYEADGSTNNGRFQ [I22R] | 2.09 |
| FTSGFNAAALDYEADGSTNNGEFQ [I22E] | 2.4 |
| FTSGFNAAALDYEADGSTNNGFFQ [I22F] | 1.69 |
| FTSGFNAAALDYEADGSTNNGWFQ [I22W] | 2.15 |
| FTSGFNAAALDYEADGSTNNGDFQ [I22D] | 2.41 |
| FTSGFNAAALDYEADGSTNNGVFQ [I22V] | 1.69 |
| FTSGFNAAALDYEADGSTNNGNFQ [I22N] | 2.13 |
| FTSGFNAAALDYEADSSTNNGIFQ [G16S] | 1.83 |
| FTSGFNAAALDYEADWSTNNGIFQ [G16W] | 1.15 |
| FTSGFNAAALDYEADDSTNNGIFQ [G16D] | 2.31 |

| Variant | protein stability index |
| --- | --- |
| FTSGFNAAALDYEADLSTNNGIFQ [G16L] | 1.72 |
| FTSGFNAAALDYEADYSTNNGIFQ [G16Y] | 1.66 |
| FTSGFNAAALDYEADKSTNNGIFQ [G16K] | 2.26 |
| FTSGFNAAALDYEADTSTNNGIFQ [G16T] | 2.26 |
| FTSGFNAAALDYEADMSTNNGIFQ [G16M] | 2 |
| FTSGFNAAALDYEADASTNNGIFQ [G16A] | 2.3 |
| FTSGFNAAALDYEADVSTNNGIFQ [G16V] | 1.78 |
| FTSGFNAAALDYEADCSTNNGIFQ [G16C] | 1.49 |
| FTSGFNAAALDYEADISTNNGIFQ [G16I] | 1.92 |
| FTSGFNAAALDYEADGCTNNGIFQ [S17C] | 1.94 |
| FTSGFNAAALDYEADGKTNNGIFQ [S17K] | 1.87 |
| FTSGFNAAALDYEADGLTNNGIFQ [S17L] | 1.71 |
| FTSGFNAAALDYEADGPTNNGIFQ [S17P] | 2.05 |
| FTSGFNAAALDYEADGATNNGIFQ [S17A] | 2.1 |
| FTSGFNAAALDYEADGGTNNGIFQ [S17G] | 2.05 |
| FTSGFNAAALDYEADGDTNNGIFQ [S17D] | 2.21 |
| FTSGFNAAALDYEADGRTNNGIFQ [S17R] | 1.95 |
| FTSGFNAAALDYEADGITNNGIFQ [S17I] | 1.96 |
| FTSGFNAAALDYEADGTTNNGIFQ [S17T] | 2.19 |
| FTSGFNAAALDYEADGSTANGIFQ [N19A] | 1.67 |
| FTSGFNAAALDYEADGSTRNGIFQ [N19R] | 1.66 |
| FTSGFNAAALDYEADGSTTNGIFQ [N19T] | 1.84 |
